Kd, Km and kcat data for 2 molecules are collected here from publication PMC10102205, “Active and stable alcohol dehydrogenase-assembled hydrogels via synergistic bridging of triazoles and metal ions” (Nature Communications, 2023).

Data set [1] concerns the target T1, TbSADH (Thermoanaerobacter brockii, UniProt P14941).
T1 construct: gene adh; recombinant from E. coli BL21(DE3), pET28a or pET22b vector, purified by AKTA; homotetramer
T1 sequence (P14941 1-352): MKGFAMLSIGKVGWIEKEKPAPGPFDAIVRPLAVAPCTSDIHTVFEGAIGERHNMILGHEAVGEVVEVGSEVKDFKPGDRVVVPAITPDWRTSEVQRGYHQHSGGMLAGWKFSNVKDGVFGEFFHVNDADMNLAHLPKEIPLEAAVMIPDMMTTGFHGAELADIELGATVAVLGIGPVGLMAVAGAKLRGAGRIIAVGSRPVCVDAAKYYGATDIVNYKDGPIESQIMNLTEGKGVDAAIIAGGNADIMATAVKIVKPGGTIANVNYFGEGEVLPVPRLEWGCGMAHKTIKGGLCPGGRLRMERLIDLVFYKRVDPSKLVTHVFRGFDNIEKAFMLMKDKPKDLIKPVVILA
Description: isothermal titration calorimetry. The format is binding. Background: In ITC the heat of successive injections is recorded.

Substrate in data set [2]: CC(=O)c1ccccc1
Nature of the data set: asymmetric reduction, chiral HPLC, Michaelis–Menten fit. Format: biochemical, Thermoanaerobacter brockii. To be noted: free enzyme, not gelated, general assay: NADP^+ 1 mM, 10% IPA, phosphate buffer 50 mM pH 7.4, 30 °C.

The term Kd denotes the equilibrium constant for the complex coming apart. High values mean weaker binding, low ones tighter binding. Turning to `Cc1nnc[nH]1` [3-Me-3N, 1H-3-methyl-1,2,4-triazole], in data set [1], the equilibrium dissociation constant (Kd) worked out at 770 µM.

B1: TbSADH (Thermoanaerobacter brockii) (protein)
chain: T1 sequence (P14941 1-352)
notes: recombinant from E. coli BL21(DE3), pET28a or pET22b vector, purified by AKTA; homotetramer
A word on the Km: it is the concentration of substrate that gives half-maximal velocity. The kcat is the number of substrate molecules converted per active site and unit of time at saturation. For B1, in data set [2], the Km is listed as 17.86 mM and the kcat was found to be 2.46 s⁻¹.
